The text below walks through data of the DeepSol protein solubility set.

This data set in a line: soluble on expression in E. coli; label from the status in PepcDB or PDB records.
Regarding “AHHHHHHGSTKVYIENYGCARNRADGEIMAGLLLSSGYEIVEGEENADIVVVNSCAVKDPTEVKIARRIRELLDRGKKVIVTGCLPHVNPDAIDERVSAVLGVKSIDRIVQAVEYALRGEKLISVPDWRKRNLDKLDFPRLSPRGVHFILPIAEGCLNGCTYCATRSARGVLKSYSPEKIVEWVKWAIRQGYKEIWLSAEDTGCYGFDIGTNLAKLLDEITAIEGEFRIRVGMMNPNHVLKFLDELIEAYKDEKVYKFLHLPVQSGDNEILRRMGRTYTVEEFEEIVNAFRREFPDLNLHTDIIVGFPGESEEAFQRSLELIKRIKPDKVNVSRYSPRPGTIAAKWKQLPGWVVKERSRIMHRVRLQISYEINQRYVGRKVDILVHGEGKKGNVDAVTMNYKHIIIPRGEKGEFARAKVNGATSTYLLGEIVD”, the “soluble on expression in E. coli” value is listed as “not soluble”.

Regarding “MGQGQTKSEQKLSEQTLRKFYDAQLENQLIAENLKWAQQRAVDLLKVRDQLQWEVLAAATTTVVLLAAGSIYKRKDVIIPIVPLIMGCGYQYDVAHGDNRQLVRETAVELLKTPEELHMLPAITLRDIDEFRDSHKL”, the “soluble on expression in E. coli” value is given as “not soluble”. With “SNAMAALPDKEKLLRNFTRCANWEEKYLYIIELGQRLAELNPQDRNPQNTIHGCQSQVWIVMRRNANGIIELQGDSDAAIVKGLMAVVFILYHQMTAQDIVHFDVRPWFEKMALAQHLTPSRSQGLEAMIRAIRAKAATLS”, the “soluble on expression in E. coli” value is on record as “soluble”. Under “MGSDKIHHHHHHMRAAQYLRMSTEHQTYSIDNQRDAIRDYAEIMGYEIVATYEDAGRSGLNLGGRPGLQRLLADVESGRADFETVVVYDVSRWGRFQNIDESAAYEYRCQMAGVRIEFCAEQFANDGSIESDVLKAIKRSMAAEQSRMLSQKVFIGQARLIRMGFRQGSKVGFGLRRLLVDQHGRPKGILSPSEYKSLQTDRIILVLGPPDEIATVRWIFGHFVKTRKTELEMARLLNKRGVLSDLGRPWTRVSVHSVLTNENYIGNSIWNKHSARLRSHQVRNPPELWVRVENILEPIVDRKLFNRAQIVLKTIYRHLTNDEMLAALKALLARRGALSSFIIDAAPDCPPSTRYMSRFGTIVKAYELIGYEPPKNSRYIFVNRRLETMRLQIIEDLLAAVEKRGGIATHVMETDLLRINQEITVAIATGRCRVSSFGYPRWFAKADREPPPDIFVLIRMNPDDLSIRDYLIAPAHEIAGKSELHAINGARLDTYIFPTLNPLIRLAERASVGSAAWN” stands “not soluble”; under “MATSSHLNWLIIRNNNAFLLKKRDVKKPFSTEPNNLASVSSYRYSGIVHKKTLGVVPAADKKGFTAVLKKGKYAQRPAKNTVRVDFKAGPRRSLKKLKNLLIGSKYRKDLTQAALRRASAVLRSQKPAPVKGKKAEFAKGKKPELEHHHHHH”, “not soluble”; under “MAHHHHHHMEQDAASRPVTESEQTTTSYHGHTVSFLLLLYRRLEFESSGSTRPKAMLLRSDDTSPWPSPAPLSPVPSRPSSCRSSFSSLSVTSCISIISLLISSKTAVSRFTSSSWRLRRSSSCCCNSCAVAILLPLRAHGTTQPTGKKKKKKKEREKRKTQDAHHN”, “not soluble”. For “AHHHHHHGSINNAQPPIYEEGLEELMQELKGKYHATNDYRWAILNSDITFITVGTPSKPDGSIDLTHVKQAAKSIGKALRDKEDYHVVVVKSTVLPGTTEEVVKPILEKHSGKKAFKDFGLAMNPEFLREGVALKDFLNPDRIVLGVQDEKTKKILEELYEPINAPKLIVDIKTAEMIKYASNAFLATKISFANEIGNICKKLGIDSWKVFEGVGLDHRISPHFFKTGIGFGGSCFPKDVKALIKKAEEIGENPLILKAVIEVNERQPLKMIELLKKHIPELKGRKIGVLGLAFKPNTDDVRETRAYIIIKKLLEEGASVIAYDPKAMENFKRFYPDVSGGIEYATSPEDVLKSTEIILIVTEWPDFEELDYSGKIVIDGRRIKAAERTARIYEGVCW”, the “soluble on expression in E. coli” value is recorded as “soluble”. The result for “MNEKQADTLLNVPEIVKRAKIALNLKRDSELASYLGVARATLSNWCARNSIDFPLLLNKLRHVDYNWLLTGKGSPLHDPKSFDNGKIRGEVETIHNSKTTEAIDDRSVTLYDITAAANLRTLLSDKRQYALGKILIPSIPACDGAIFVNGDSMYPILKSGDIVGFKGINNFSNVIYGEMYIVAFHLDGDQYLTVKYVNRSEKEGYVKLVSYNPHHEPMDLPVDTIQDMAIVKFSIRKNMMM” reads “not soluble”; that for “MLSIKGKKWRNWTGNVEGTPHYTMYPESIQDVVEVVGLARKKGKKIRVVGSGHSFTPLVQTEEVLVSLDELKGIVNIDAEKMVAEVWAGTKLYDLGKLLEEKGYAQENLGDIDSQSIAGAISTGTHGTGITFGSLSTQVIEITAVLSNGESIVCSETENVEYWRAFQLSLGMLGIIVKIKLKVIPAYSLVYESEKQSLSTVMNKLEEYKKHRHFEFFVFPYSDEVQVKLTNETTNTGSDLKWHKLKVELLENRMFSLLSKGCKWFPSISKGVSRLSAKAVPNTKIIGPSYEVFATSRTVPFYEMEYSIPSKYMRTVVEEISNLIEKKKYKVHFPIECRYVKGDDIWLSPAYGRDSAYIAVHMYKGMKYAAYFGEVEKIFLKYEGRPHWGKMHTLSYEQLQDIYPEFHSFLQARKSLDELGMFFNPYAEKLFIPLFAGQLEHHHHHH”, “soluble”.

Turning to “MSMSDINKNSELIFIPAPGIGHLASALEFAKLLTNHDKNLYITVFCIKFPGMPFADSYIKSVLASQPQIQLIDLPEVEPPPQELLKSPEFYILTFLESLIPHVKATIKTILSNKVVGLVLDFFCVSMIDVGNEFGIPSYLFLTSNVGFLSLMLSLKNRQIEEVFDDSDRDHQLLNIPGISNQVPSNVLPDACFNKDGGYIAYYKLAERFRDTKGIIVNTFSDLEQSSIDALYDHDEKIPPIYAVGPLLDLKGQPNPKLDQAQHDLILKWLDEQPDKSVVFLCFGSMGVSFGPSQIREIALGLKHSGVRFLWSNSAEKKVFPEGFLEWMELEGKGMICGWAPQVEVLAHKAIGGFVSHCGWNSILESMWFGVPILTWPIYAEQQLNAFRLVKEWGVGLGLRVDYRKGSDVVAAEEIEKGLKDLMDKDSIVHKKVQEMKEMSRNAVVDGGSSLISVGKLIDDITGSN”, the “soluble on expression in E. coli” value was “soluble”. As to “REEDPHEGKIWFHGKISKQEAYNLLMTVGQVCSFLVRPSDNTPGDYSLYFRTNENIQRFKICPTPNNQFMMGGRYYNSIGDIIDHYRKEQIVEGYYLKEPVPMQDQ”, the “soluble on expression in E. coli” value is on record as “soluble”. Under “MAESDWDTVTVLRKKGPTAAQAKSKQAILAAQRRGEDVETSKKWAAGQNKQHSITKNTAKLDRETEELHHDRVTLEVGKVIQRGRQSKGLTQKDLATKINEKPQVIADYESGRAIPNNQVLGKIERAIGLKLRGKDIGKPIEKGPKAK” stands “soluble”; under “MMLNNFETDSIFTPEQVLENRGRVAIFIDGSNLFYAALQLGIEIDYTKLLCRLTGGSRLLRSFFYTGVDRTNEKQQGFLLWMRRNGYRVIAKDLVQLPDGSKKANLDVEIAVDMMALVDSYDTAVLVSGDGDLAYAVNSVSYRGVRVEVVSLRSMTSDSLINVSDRYIDLEAIKEDIQKTPRQSYPYRPLSGIGFLEDPRTSDGHLEIQE”, “not soluble”; under “MGSDKIHHHHHHMHKHADFFSYLSDHFQHTYWVPGNHEWYNSDMADRSGMLHEKIKDNVSLVNNAAVEQDGVQLIFSTLWSQISPAFAFQISQGMSDFHVIKYKGKPFSVEQFNRQHEESVSFIQKALQQKYAATTVVVSHHIPTFQHYPQQYKGSVLSEAFATELYDLIEAASPDYWIYGHHHSNVPDFTIGNTQLLTNQLGYVKCGEHAGFDRGKCLFRRGGH”, “not soluble”. For “MEDKEAVRRGVTLFALPAHAGEGAKAIWQTCDVIWSALGDSSEDVNWYTKRATLSAVYSATVLYWLGDETPGHEATWEFLDRRIDNVMQFEKFKADVQKNPLLKPLLAGPNWLFAQMRAPLEHHHHHH”, the “soluble on expression in E. coli” value is given as “soluble”. For “MQEYSVEVALVHPDDMVNLFGSNERHLKLIEENLGVVIHARTERVQILGETEEAIELARLTIKALLVLVGRGMIVNTSDVVTALSMAQNGNIDKFVALYEEEIIKDSYGKPIRVKTLGQKVYVDSVKSHDIVFGIGPAGTGKTFLAVTLAITALKRGQVKRIILTRPAVEAGESLGFLPGDLKEKVDPYLRPVYDALYQILGKEQTSRLMEREIIEIAPLAYMRGRTLDDAFVILDEAQNTTIMQMKMFLTRLGFNSKMIVNGDISQIDLPKNVKSGLVDASEKLKDIKQIDFVYLSAKDVVRHPVVAEIINAYEESTDVR”, the “soluble on expression in E. coli” value is reported as “not soluble”.
